Source: patent US20220331453A1 (INDUSTRY UNIVERSITY COOPERATION FOUNDATION HANYANG …, published 2022)

Molecular target: T1, VEGFR1 (Flt1) on the membrane of HUVECs (human, UniProt P17948 27-1338)
T1 construct: whole, on cells; Endogenous receptor on HUVECs; also called fms-like tyrosine kinase-1
Assay: fluorescence imaging of HUVECs with dye-conjugated cage
Procedure: HUVECs were spread onto a 48-well plate at 4×10⁴ cells/well and then cultured overnight. The HUVECs were incubated with 50 ng/mL human recombinant rhVEGF₁₆₅ and dye-conjugated fusion protein cage at different concentrations for 15, 30 and 60 minutes at 37° C. The HUVECs were imaged in a […] (Zeiss, Oberkochen, Germany) using FITC.
A maleimide-modified fluorescent dye was conjugated at the thiol of HPC, and the conjugation of the fluorescent dye to the polypeptide was qualitatively identified by SDS-PAGE. The fluorescent dye-conjugated anti-Flt1-HPC4-EBPP[A₁G₄I₁]₆-PEDF 34-mer-EBPP[A₁G₄I₁]₆-HPC5 was visualized by exposure to UV light on SDS-PAGE without gel staining. In FIG. 5 (A) (b), the location of the dye-conjugated polypeptide is compared under UV light with that of a marker in a bright-field mode. The location corresponded to that of the fusion polypeptide on the copper-stained SDS-PAGE gel prior to the dye conjugation (FIG. 5 (A) (a)). The conjugation of the dye to anti-Flt1-HPC4-EBPP[A₁G₄I₁]₆-PEDF 34-mer-EBPP[A₁G₄I₁]₆-HPC5 was confirmed from the fluorescence spectrum. […] HUVECs were spread onto a […] plate and then cultured overnight. The HUVECs were incubated with 1 μM or 10 μM dye-conjugated polypeptide for 15, 30 or 60 minutes. […]

T1 sequence (P17948 27-1338): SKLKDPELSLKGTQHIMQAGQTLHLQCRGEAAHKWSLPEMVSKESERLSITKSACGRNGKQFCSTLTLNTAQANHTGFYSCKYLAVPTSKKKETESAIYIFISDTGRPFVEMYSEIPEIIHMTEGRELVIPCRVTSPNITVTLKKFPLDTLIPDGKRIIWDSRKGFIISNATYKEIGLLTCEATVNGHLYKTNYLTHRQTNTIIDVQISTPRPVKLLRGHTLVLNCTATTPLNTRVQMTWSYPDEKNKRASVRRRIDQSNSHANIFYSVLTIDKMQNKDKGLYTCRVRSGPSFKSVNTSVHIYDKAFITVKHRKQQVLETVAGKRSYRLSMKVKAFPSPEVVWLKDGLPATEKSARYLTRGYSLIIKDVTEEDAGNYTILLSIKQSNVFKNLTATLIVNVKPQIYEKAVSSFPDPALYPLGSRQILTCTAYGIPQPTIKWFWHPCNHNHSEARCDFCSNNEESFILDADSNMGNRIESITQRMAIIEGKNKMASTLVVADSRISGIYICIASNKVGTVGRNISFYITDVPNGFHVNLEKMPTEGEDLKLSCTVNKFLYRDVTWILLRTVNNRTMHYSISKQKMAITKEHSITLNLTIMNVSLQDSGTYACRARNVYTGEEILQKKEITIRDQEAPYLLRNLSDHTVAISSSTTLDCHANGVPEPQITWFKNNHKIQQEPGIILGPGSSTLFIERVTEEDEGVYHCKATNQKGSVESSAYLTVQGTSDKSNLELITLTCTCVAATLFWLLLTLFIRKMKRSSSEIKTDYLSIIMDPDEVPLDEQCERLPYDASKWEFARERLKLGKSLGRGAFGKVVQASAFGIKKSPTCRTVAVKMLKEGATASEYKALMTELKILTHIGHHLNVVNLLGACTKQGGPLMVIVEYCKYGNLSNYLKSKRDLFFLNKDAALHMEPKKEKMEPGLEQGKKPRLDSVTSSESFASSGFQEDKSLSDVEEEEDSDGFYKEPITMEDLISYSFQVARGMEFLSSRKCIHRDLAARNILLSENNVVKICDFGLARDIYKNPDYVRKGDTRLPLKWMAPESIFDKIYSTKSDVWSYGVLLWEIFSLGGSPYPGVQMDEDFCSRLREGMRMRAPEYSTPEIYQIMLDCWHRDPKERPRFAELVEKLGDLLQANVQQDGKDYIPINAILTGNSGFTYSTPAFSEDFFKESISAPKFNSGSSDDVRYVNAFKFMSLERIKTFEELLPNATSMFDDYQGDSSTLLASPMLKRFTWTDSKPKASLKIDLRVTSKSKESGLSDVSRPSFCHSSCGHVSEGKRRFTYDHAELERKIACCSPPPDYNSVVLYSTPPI

binding result: binds
B1: fluorescent dye-conjugated anti-Flt1-HPC4-EBPP[A1G4I1]6-PEDF 34-mer-EBPP[A1G4I1]6-HPC5 (designed binder)
chain: GNQWFISSQIRQNYSTDVEAAVNSLVNLYLQASYTYLSLGFYFDRDDVALEGVSHFFRELAEEKREGYERLLKMQNQRGGRALFQDIKKPAEDEWGKTPDAMKAAMALEKKLNQALLDLHALGSARTDPHLCDFLETHFLDEEVKLIKKMGDHLTNLHRLGGVPAGGVPAAGVPAGGVPAGGVPAIGVPAGGVPAGGVPAAGVPAGGVPAGGVPAIGVPAGGVPAGGVPAAGVPAGGVPAGGVPAIGVPAGGVPAGGVPAAGVPAGGVPAGGVPAIGVPAGGVPAGGVPAAGVPAGGVPAGGVPAIGVPAGGVPAGGVPAAGVPAGGVPAGGVPAIGVPAGGDPFFKVPVNKLAAAVSNFGYDLYRVRSSTSPTTNVPAGGVPAAGVPAGGVPAGGVPAIGVPAGGVPAGGVPAAGVPAGGVPAGGVPAIGVPAGGVPAGGVPAAGVPAGGVPAGGVPAIGVPAGGVPAGGVPAAGVPAGGVPAGGVPAIGVPAGGVPAGGVPAAGVPAGGVPAGGVPAIGVPAGGVPAGGVPAAGVPAGGVPAGGVPAIGVPAGGPEAGLGEYLFERLTLKHD
modifications: Alexa Fluor 488 C5 maleimide conjugated at cysteine (thiol of HPC) via thiol-maleimide reaction
notes: also called dye-conjugated fusion protein cage; dye-conjugated polypeptide
